Source: the supplement of paper PMC10567573

B1: TFE3 (parent)
chain: FPSDHLGDLGDPFHLGLEDILMEE

Variants of: B1
Assay: protein stability index of a GFP-peptide fusion (GPS, HEK-293T) (PSI 1-6); higher = more stable
Settings: c terminus: a fixed tail appended
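Also: lentivirally expressed fusions sorted by FACS into six bins by GFP to DsRed ratio, PSI derived from sequencing read proportions per bin multiplied by bin number.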

Point of comparison: FPSDHLGDLGDPFHLMLEDILMEE [G16M], protein stability index 3.51. Against it:
- FPSDHLGDLGDPFHLGLEDIDMEE [L21D] — higher, 4.26
- FPSDHLGDLGDPFHLGLEDICMEE [L21C] — lower, 3.42
- FPSDHLGDLGDPFHLGLEDIGMEE [L21G] — higher, 3.88
- FPSDHLGDLGDPFHLGLEDIQMEE [L21Q] — higher, 3.94
- FPSDHLGDLGDPFHLGLEDIHMEE [L21H] — higher, 4.08
- FPSDHLGDLGDPFHLGLEDIEMEE [L21E] — higher, 4.28
- FPSDHLGDLGDPFHLGLEDIIMEE [L21I] — lower, 3.32
- FPSDHLGDLGDPFHLGKEDILMEE [L17K] — higher, 3.53
- FPSDHLGDLGDPFHLGEEDILMEE [L17E] — higher, 4.11
- FPSDHLGDLGDPFHLGSEDILMEE [L17S] — higher, 3.86
- FPSDHLGDLGDPFHLGWEDILMEE [L17W] — lower, 3.19
- FPSDHLGDLGDPFHLGGEDILMEE [L17G] — higher, 3.7
- FPSDHLGDLGDPFHLGTEDILMEE [L17T] — lower, 3.47
- FPSDHLGDLGDPFHLGFEDILMEE [L17F] — lower, 3.1
- FPSDHLGDLGQPFHLGLEDILMEE [D11Q] — higher, 4.41
- FPSDHLGDLGGPFHLGLEDILMEE [D11G] — higher, 3.52
- FPSDHLGDLGYPFHLGLEDILMEE [D11Y] — lower, 2.67
- FPSDHLGDLGDPFTLGLEDILMEE [H14T] — higher, 3.64
- FPSDHLGDLGDPFPLGLEDILMEE [H14P] — higher, 4.66
- FPSDHLGDLGDPFKLGLEDILMEE [H14K] — higher, 3.7
- FPSDHLGDLGDPFQLGLEDILMEE [H14Q] — higher, 4.09
- FPSDHLGDLGDPFSLGLEDILMEE [H14S] — higher, 4.25
- FPSDHLGDLGDPFELGLEDILMEE [H14E] — higher, 4.36
- FPSDHLGDLGDPFHLGLKDILMEE [E18K] — lower, 2.85
- FPSDHLGDLGDPFHLGLPDILMEE [E18P] — lower, 3.07
- FPSDHLGDLGDPFHLGLHDILMEE [E18H] — lower, 2.72
- FPSDHLGDLGDPFHLGLWDILMEE [E18W] — lower, 2.65
- FPSDHLGPLGDPFHLGLEDILMEE [D8P] — lower, 3.31
- FPSDHLGHLGDPFHLGLEDILMEE [D8H] — lower, 2.73
- FPSDHLGRLGDPFHLGLEDILMEE [D8R] — lower, 2.15
- FPSDHLGQLGDPFHLGLEDILMEE [D8Q] — lower, 3.07
- FPSDHLGGLGDPFHLGLEDILMEE [D8G] — lower, 3.09
- FPSDHLGWLGDPFHLGLEDILMEE [D8W] — lower, 1.98
- FPSDHLGDLVDPFHLGLEDILMEE [G10V] — higher, 3.63
- FPSDHLGDLFDPFHLGLEDILMEE [G10F] — lower, 2.54
- FPSDHLSDLGDPFHLGLEDILMEE [G7S] — higher, 3.73
- FPSDHLQDLGDPFHLGLEDILMEE [G7Q] — higher, 3.67
- FPSDHLTDLGDPFHLGLEDILMEE [G7T] — lower, 3.3
- FPSDHLHDLGDPFHLGLEDILMEE [G7H] — lower, 3.11
- FPSDHLLDLGDPFHLGLEDILMEE [G7L] — lower, 3.41
- FPSDHLKDLGDPFHLGLEDILMEE [G7K] — lower, 3.07
- FPSDHLMDLGDPFHLGLEDILMEE [G7M] — lower, 3.29
- FPSDHLGDLGDPFHEGLEDILMEE [L15E] — higher, 4.21
- FPSDHLGDLGDPFHHGLEDILMEE [L15H] — higher, 3.93
- FPSDHLGDLGDPFHTGLEDILMEE [L15T] — higher, 3.85
- FPSDHLGDLGDPFHDGLEDILMEE [L15D] — higher, 4.45
- FPSDHLGDLGDPFHNGLEDILMEE [L15N] — higher, 3.77
- FPSDHLGDLGDPFHLGLEDILGEE [M22G] — higher, 3.64
- FPSDHLGDLGDPFHLGLEDILHEE [M22H] — higher, 3.7
- FPSDHLGDLGDPFHLGLEDILNEE [M22N] — higher, 4.04
- FPSDHLGDLGDPFHLGLEDILSEE [M22S] — higher, 3.87
- FPSDHLGDLGDPFHLGLEDILTEE [M22T] — higher, 3.72
- FPSDHLGDLGDPFHLGLEDILMDE [E23D] — lower, 2.86
- FPSDHLGDLGDPFHLGLEDILMYE [E23Y] — lower, 2.3
- FPSDHEGDLGDPFHLGLEDILMEE [L6E] — higher, 3.96
- FPSDHFGDLGDPFHLGLEDILMEE [L6F] — lower, 3.16
- FPSDHWGDLGDPFHLGLEDILMEE [L6W] — lower, 1.75
- FPSDHRGDLGDPFHLGLEDILMEE [L6R] — lower, 2.98
- FPSDHHGDLGDPFHLGLEDILMEE [L6H] — higher, 3.98
- FPSDHSGDLGDPFHLGLEDILMEE [L6S] — lower, 3.35
- FPSDHTGDLGDPFHLGLEDILMEE [L6T] — higher, 3.79
- FPSDHVGDLGDPFHLGLEDILMEE [L6V] — higher, 3.81
- FPSDFLGDLGDPFHLGLEDILMEE [H5F] — lower, 3.28
- FPSDSLGDLGDPFHLGLEDILMEE [H5S] — higher, 3.81
- FPSDGLGDLGDPFHLGLEDILMEE [H5G] — lower, 3.36
- FPSDYLGDLGDPFHLGLEDILMEE [H5Y] — lower, 3.18
- FPSDILGDLGDPFHLGLEDILMEE [H5I] — lower, 3.08
- FPSDLLGDLGDPFHLGLEDILMEE [H5L] — lower, 3.3
- FPSDHLGDLGDPFHLGLEKILMEE [D19K] — lower, 3.29
- FPSDHLGDLGDPFHLGLELILMEE [D19L] — lower, 2.03
- FPSDHLGDLGDPFHLGLEGILMEE [D19G] — lower, 3.46
- FPSDHLGDLGDPFHLGLEVILMEE [D19V] — lower, 1.97
- FPSDHLGDLGDPFHLGLERILMEE [D19R] — lower, 2.77
- FPSDHLGDLGDPFHLGLEPILMEE [D19P] — lower, 3.31
- FPSDHLGDLGDPFHLGLEYILMEE [D19Y] — lower, 1.91
- FPSDHLGDEGDPFHLGLEDILMEE [L9E] — higher, 4
- FPSDHLGDSGDPFHLGLEDILMEE [L9S] — higher, 3.69
- FPSDHLGDQGDPFHLGLEDILMEE [L9Q] — higher, 3.64
- FPSDHLGDRGDPFHLGLEDILMEE [L9R] — higher, 3.66
- FPSDHLGDVGDPFHLGLEDILMEE [L9V] — lower, 3.48
- FPSDHLGDLGDGFHLGLEDILMEE [P12G] — higher, 4.1
- FPSDHLGDLGDHFHLGLEDILMEE [P12H] — higher, 3.98
- FPSDHLGDLGDPFHLGLEDSLMEE [I20S] — higher, 3.7
- FPSDHLGDLGDPFHLGLEDQLMEE [I20Q] — higher, 4.37
- FPSDHLGDLGDPFHLGLEDALMEE [I20A] — lower, 3.28
- FPSDHLGDLGDPFHLTLEDILMEE [G16T] — lower, 3.1
- FPSDHLGDLGDPFHLKLEDILMEE [G16K] — lower, 3.3
- FPSDHLGDLGDPFHLCLEDILMEE [G16C] — lower, 2.7
- FPSDHLGDLGDPFHLHLEDILMEE [G16H] — lower, 3.25
- FPSDHLGDLGDPFHLVLEDILMEE [G16V] — lower, 2.67
- FPIDHLGDLGDPFHLGLEDILMEE [S3I] — lower, 3.02
- FPGDHLGDLGDPFHLGLEDILMEE [S3G] — lower, 2.97
- FNSDHLGDLGDPFHLGLEDILMEE [P2N] — higher, 4.24
